Results as given in US20050191294A1, “Compositions and methods of use of targeting peptides for diagnosis and therapy” (Board of Regents, The University of Texas System, priority 2003, published 2005).

Biological target: recombinant gst-fused prohibitin [GST: P08515]
Assay: phage binding to gst-prohibitin immobilized on microtiter plate, 10^9 TU, bound TU counted

Sequence of recombinant gst-fused prohibitin [GST: P08515] (P08515 whole entry, the tested form may be a part): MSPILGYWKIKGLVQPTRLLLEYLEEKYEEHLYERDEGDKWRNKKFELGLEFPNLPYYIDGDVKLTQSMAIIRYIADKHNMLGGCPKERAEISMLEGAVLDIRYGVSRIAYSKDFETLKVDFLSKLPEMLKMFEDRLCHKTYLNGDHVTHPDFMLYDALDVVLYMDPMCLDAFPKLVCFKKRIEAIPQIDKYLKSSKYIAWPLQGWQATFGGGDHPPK

Binder: CKGGRAKDC (peptide, not shown: large carriers, modifications not checked) [… (SEQ ID NO:4)-displaying phage]
- fold binding relative to control insertless phage: 8 fold
